Test results published in patent US6417328B1, “Trail receptors, nucleic acids encoding the same, and methods of use thereof” (Thomas Jefferson Univeristy, priority 1997, dated 2002).
Residues, ends and D or L forms follow the SMILES beside them. *: point of attachment. Cbz = O=C(OCc1ccccc1)*; CH2F = FC*

Columns and labels:
Type in all cases: cell-based, human
[1] = system: DR4-induced apoptosis in MCF7 cells; test: Inhibition of DR4-induced apoptosis in transfected MCF7 cells
Source text: (§1) For apoptosis assays the mammalian double expression vector pRSC (Akporiaye E. T. et al. (1997) BioTech. 22, 68) was used, which allows for expression of lacZ under the RSV promoter and the test cDNA (DR4, DR4A, DR5, DR5A, TRAIL-R3) under the CMV promoter. CrmA, FLAME-1, caspase-8-DN (C345A) or caspase-10-DN (C358A) (Alnemnri E. S. et al. (1997) J. Biol. Chem. 272, 18542-18545) were expressed using pcDNA3 (Invitrogen).
(§2) FIG. 3 illustrates that expression of DR5 but not TRAIL-R3 induces apoptosis in human cells. MCF7 (FIG. 3A) and 293 (FIG. 3B) cells were transfected with the indicated pRSC-lacZ constructs. Thirty hours after transfection cells were stained with Pgal and examined for morphological signs of apoptosis. The graphs show the percentage of round blue apoptotic cells (mean +SD) as a function of total blue cells under each condition (≧23).
(§3) MCF7 cells were transfected with DR4 or DR5 expression constructs in the presence of z-VAD-fmk (20 μM) or co-transfected with a four-fold excess of a CrmA, caspase-8-DN, caspase-10-DN or FLAME-1 construct or an empty vector. The data are represented as in FIGS. 3A and 3B.

[2] = system: DR5-induced apoptosis in MCF7 cells; test: Inhibition of DR5-induced apoptosis in transfected MCF7 cells
Source text: as §1, §2, §3

apoptosis by TNF-α = test: Inhibition of apoptosis by TNF-α (FIG. 3F)
apoptosis by TRAIL = test: Inhibition of apoptosis by TRAIL (FIG. 3F)
MCF7 cells [3] = test: Blocking of TRAIL-induced apoptosis in MCF7 cells; conditions: MCF7 cells transfected 36 h, then soluble TRAIL 250 ng/ml for 8 h (FIG. 3C)
Experimental: Cells were stained 8 hours later with propidium iodide and the nuclei were examined by fluorescence microscopy.
MCF7 cells were transfected with TRAIL-R3 or vector alone for 36 h, then treated with soluble TRAIL (250 ng/ml) for 8 h. The data are represented as in FIGS. 3A and 3B, after subtracting the background killing (12-15%) as a result of transfection.

293 cells = test: Apoptosis induction by transient expression in 293 cells; conditions: pRSC-lacZ constructs, thirty hours after transfection (FIG. 3B)
Source text: as §1, §2

MCF7 cells [4] = test: Apoptosis induction by transient expression in MCF7 cells; conditions: pRSC-lacZ constructs, thirty hours after transfection (FIG. 3A)
Source text: as §1, §2

[5] = MCF7 cells co-transfected with four-fold excess of inhibitor construct (FIG. 3D, 3E)

COC(=O)C[C@H](NC(=O)[C@H](C)NC(=O)[C@@H](NC(=O)OCc1ccccc1)C(C)C)C(=O)CF [z-VAD-fmk, reference compound] (Cbz-Val-Ala-Asp(OMe)-CH2F)
Inhibition of DR4-induced apoptosis ([1]; MCF7 cells transfected with DR4 construct in the presence of inhibitor 20 μM (FIG. 3D)): inhibited | Inhibition of DR5-induced apoptosis ([2]; MCF7 cells transfected with DR5 construct in the presence of inhibitor 20 μM (FIG. 3D)): efficiently blocked

DR5s: alternatively spliced isoform of DR5, 350 amino acids (SEQ ID NO:6), truncated death domain
Inhibition of apoptosis by TNF-α (apoptosis by TNF-α): not | Inhibition of apoptosis by TRAIL (apoptosis by TRAIL): substantially inhibits

B1: caspase-8-DN: dominant negative inhibitor caspase-8 (C345A), expressed using pcDNA3 (protein, UniProt Q14790 1-479, looked up, variant C345A)
chain: MDFSRNLYDIGEQLDSEDLASLKFLSLDYIPQRKQEPIKDALMLFQRLQEKRMLEESNLSFLKELLFRINRLDLLITYLNTRKEEMERELQTPGRAQISAYRVMLYQISEEVSRSELRSFKFLLQEEISKCKLDDDMNLLDIFIEMEKRVILGEGKLDILKRVCAQINKSLLKIINDYEEFSKERSSSLEGSPDEFSNGEELCGVMTISDSPREQDSESQTLDKVYQMKSKPRGYCLIINNHNFAKAREKVPKLHSIRDRNGTHLDAGALTTTFEELHFEIKPHDDCTVEQIYEILKIYQLMDHSNMDCFICCILSHGDKGIIYGTDGQEAPIYELTSQFTGLKAPSLAGKPKVFFIQACQGDNYQKGIPVETDSEEQPYLEMDLSSPQTRYIPDEADFLLGMATVNNCVSYRNPAEGTWYIQSLCQSLRERCPRGDDILTILTEVNYEVSNKDDKKNMGKQMPQPTFTLRKKLVFPSD
Inhibition of DR4-induced apoptosis [1, 5]: significantly inhibited | Inhibition of DR5-induced apoptosis [2, 5]: significantly inhibited

B2: TRAIL-R3: human TRAIL receptor protein of 299 amino acids (SEQ ID NO:4) without cytoplasmic domain (protein, listed as Homo sapiens)
chain: MQGVKERFLPLGNSGDRAPRPPDGRGRVRPRTQDGVGNHTMARIPKTLKFVVVIVAVLLPVLAYSATTARQEEVPQQTVAPQQQRHSFKGEECPAGSHRSEHTGACNPCTEGVDYTNASNNEPSCFPCTVCKSDQKHKSSCTMTRDTVCQCKEGTFRNENSPEMCRKCSRCPSGEVQVSNCTSWDDIQCVEEFGANATVETPAAEETMNTSPGTPAPAAEETMNTSPGTPAPAAEETMTTSPGTPAPAAEETMTTSPGTPAPAAEETMTTSPGTPASSHYLSCTIVGIIVLIVLLIVFV
Blocking of TRAIL-induced apoptosis by transient (ectopic) expression (MCF7 cells [3]): significantly blocked | Induction of apoptosis by transient expression (293 cells): incapable of inducing apoptosis | Induction of apoptosis by transient expression (MCF7 cells [4]): incapable of inducing apoptosis

B3: DR5: human TRAIL receptor protein of 411 amino acids (SEQ ID NO:2) with cytoplasmic death domain (protein, listed as Homo sapiens)
chain: MEQRGQNAPAASGARKRHGPGPREARGARPGLRVPKTLVLVVAAVLLLVSAESALITQQDLAPQQRVAPQQKRSSPSEGLCPPGHHISEDGRDCISCKYGQDYSTHWNDLLFCLRCTRCDSGEVELSPCTTTRNTVCQCEEGTFREEDSPEMCRKCRTGCPRGMVKVGDCTPWSDIECVHKESGIIIGVTVAAVVLIVAVFVCKSLLWKKVLPYLKGICSGGGGDPERVDRSSQRPGAEDNVLNEIVSILQPTQVPEQEMEVQEPAEPTGVNMLSPGESEHLLEPAEAERSQRRRLLVPANEGDPTETLRQCFDDFADLVPFDSWEPLMRKLGLMDNEIKVAKAEAAGHRDTLYTMLIKWVNKTGRDASVHTLLDALETLGERLAKQKIEDHLLSSGKFMYLEGNADSAMS
Induction of apoptosis by transient expression (293 cells): triggers apoptosis | Induction of apoptosis by transient expression (MCF7 cells [4]): triggers apoptosis
